Data as given in the supplement of paper PMC10724198.
± gives the standard deviation of the averaged measurements.

Key:
[1] = test system: Saccharomyces cerevisiae; assay: protein stability index of tFT-peptide fusion (C-terminal peptide) (PSI (0-1 scale)); higher = more stable (slower turnover)
Protocol: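 MPS profiling in S. cerevisiae of the tFT-X12 degron library: putative degron peptides plus stable controls, 12 aa, fused to the C-terminus of a sfGFP-mCherry timer. Cells are FACS-sorted into 8 mCherry/sfGFP bins and deep-sequenced. PSI runs from 0 (unstable) to 1 (stable). Backgrounds are wild type, das1Δ and doa10Δ at 30 °C, and wild type, das1Δ, cdc34-1 and cdc53-1 at 37 °C; 2-3 technical replicates each.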

[2] = test system: Saccharomyces cerevisiae; assay: as above; conditions: genetic background: wild type; temperature: 30 C
[3] = genetic background: cdc34-1, temperature: 37 C
[4] = genetic background: cdc53-1, temperature: 37 C
[5] = genetic background: das1 deletion, temperature: 30 C
[6] = genetic background: das1 deletion, temperature: 37 C
[7] = genetic background: doa10 deletion, temperature: 30 C
[8] = genetic background: wild type, temperature: 30 C
[9] = genetic background: wild type, temperature: 37 C
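Also: PSI is a weighted mean of sequencing reads over stability bins, variants kept only with over 10 reads, mCherry proximal and sfGFP distal, peptide attached via GGGS linker.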

Row | Sequence | protein stability index [1, 3] | protein stability index [1, 4] | protein stability index [1, 5] | protein stability index [1, 6] | protein stability index [1, 7] | protein stability index [1, 8] | protein stability index [1, 9] | protein stability index [2]
1 | LMLIPRLLVGAH | 0.181 ± 0.034 | 0.172 ± 0.0025 | 0.184 ± 0.029 | 0.2958 ± 0.0022 | 0.152 ± 0.008 | 0.181 ± 0.018 | 0.2523 ± 0.0011 | 0.291 ± 0.014
2 | LPFFSFSPWWFY | 0.773 ± 0.042 | 0.808 ± 0.026 | 0.736 ± 0.04 | 0.817 ± 0.029 | 0.209 ± 0.036 | 0.24 ± 0.036 | 0.497 ± 0.018 | 0.262 ± 0.033
3 | LPIFWVWFSVFR | 0.232 ± 0.012 | 0.243 ± 0.022 | 0.269 ± 0.035 | 0.445 ± 0.027 | 0.334 ± 0.027 | 0.257 ± 0.034 | 0.3973 ± 0.0026 | 0.349 ± 0.0062
4 | LPLHPHRSRYLV | 0.593 ± 0.033 | 0.691 ± 0.018 | 0.674 ± 0.019 | 0.702 ± 0.031 | 0.101 ± 0.015 | 0.0982 ± 0.0075 | 0.203 ± 0.02 | 0.21 ± 0.021
5 | LPPPTPRSVLLN | 0.644 ± 0.039 | 0.737 ± 0.034 | 0.672 ± 0.019 | 0.732 ± 0.015 | 0.296 ± 0.019 | 0.315 ± 0.04 | 0.5546 ± 0.0016 | 0.51 ± 0.076
6 | LPSPPSSPPLRP | 0.6542 ± 0.0027 | 0.57161 ± 0.00026 | 0.597 ± 0.0064 | 0.732 ± 0.045 | 0.5877 ± 0.0035 | 0.599 ± 0.017 | 0.701 ± 0.039 | 0.508 ± 0.019
7 | LPSRWVPLPTPA | 0.5362 ± 0.0003 | 0.569 ± 0.024 | 0.407 ± 0.037 | 0.59 ± 0.004 | 0.38 ± 0.016 | 0.413 ± 0.022 | 0.56219 ± 0.00016 | 0.508 ± 0.016
8 | LPTLDCPLHRLF | 0.694 ± 0.026 | 0.8 ± 0.0093 | 0.641 ± 0.012 | 0.7615 ± 0.0076 | 0.674 ± 0.016 | 0.654 ± 0.0035 | 0.733 ± 0.016 | 0.559 ± 0.084
9 | LQCVYFVFFICF | 0.2682 ± 0.0023 | 0.4 ± 0.016 | 0.266 ± 0.018 | 0.412 ± 0.0067 | 0.235 ± 0.0054 | 0.251 ± 0.015 | 0.37 ± 0.032 | 0.399 ± 0.051
10 | LQVPTLRLFVFF | 0.584 ± 0.029 | 0.724 ± 0.033 | 0.577 ± 0.02 | 0.698 ± 0.021 | 0.197 ± 0.0017 | 0.224 ± 0.012 | 0.398 ± 0.026 | 0.3 ± 0.0049
11 | LRMSLLVFLLFA | 0.312 ± 0.03 | 0.407 ± 0.033 | 0.261 ± 0.033 | 0.4419 ± 0.0016 | 0.249 ± 0.021 | 0.231 ± 0.025 | 0.399 ± 0.0072 | 0.314 ± 0.054
12 | LRQKIIYWWLWL | 0.478 ± 0.019 | 0.488 ± 0.021 | 0.472 ± 0.03 | 0.613 ± 0.008 | 0.255 ± 0.011 | 0.245 ± 0.011 | 0.3523 ± 0.001 | 0.313 ± 0.0047
13 | LRVLSVVRLSVW | 0.479 ± 0.0067 | 0.545 ± 0.023 | 0.407 ± 0.034 | 0.545 ± 0.011 | 0.382 ± 0.02 | 0.4 ± 0.025 | 0.54567 ± 0.00028 | 0.468 ± 0.055
14 | LSARVFCFWFFS | 0.586 ± 0.018 | 0.635 ± 0.011 | 0.549 ± 0.05 | 0.677 ± 0.028 | 0.187 ± 0.017 | 0.201 ± 0.011 | 0.2852 ± 0.0022 | 0.31 ± 0.024
15 | LSFLCFSTVLHC | 0.557 ± 0.0096 | 0.606 ± 0.019 | 0.511 ± 0.017 | 0.58 ± 0.019 | 0.46 ± 0.022 | 0.462 ± 0.03 | 0.54302 ± 0.00015 | 0.503 ± 0.073
16 | LSFLFFRLCSFF | 0.487 ± 0.066 | 0.551 ± 0.0081 | 0.568 ± 0.034 | 0.668 ± 0.021 | 0.157 ± 0.0029 | 0.158 ± 0.017 | 0.184 ± 0.04 | 0.203 ± 0.061
17 | LSLLCFVASVVA | 0.168 ± 0.0083 | 0.195 ± 0.005 | 0.238 ± 0.027 | 0.292 ± 0.015 | 0.1585 ± 0.00028 | 0.194 ± 0.021 | 0.224 ± 0.013 | 0.275 ± 0.016
18 | LSLVIFIFLYCR | 0.0945 ± 0.016 | 0.123 ± 0.037 | 0.179 ± 0.0092 | 0.234 ± 0.0042 | 0.27 ± 0.033 | 0.169 ± 0.023 | 0.205 ± 0.027 | 0.227 ± 0.053
19 | LSLWPIFGIIYC | 0.46 ± 0.035 | 0.4637 ± 0.0007 | 0.357 ± 0.024 | 0.516 ± 0.013 | 0.332 ± 0.011 | 0.364 ± 0.019 | 0.513 ± 0.019 | 0.4508 ± 0.0019
20 | LSPPPLSFPFSA | 0.704 ± 0.0072 | 0.753 ± 0.02 | 0.623 ± 0.012 | 0.737 ± 0.011 | 0.643 ± 0.017 | 0.666 ± 0.024 | 0.7118 ± 0.0069 | 0.136 ± 0.021
21 | LSVVVLVLCVLL | 0.285 ± 0.028 | 0.403 ± 0.02 | 0.279 ± 0.04 | 0.42 ± 0.027 | 0.268 ± 0.023 | 0.283 ± 0.023 | 0.428 ± 0.082 | 0.353 ± 0.033
22 | LVGYCGAWACVV | 0.642 ± 0.034 | 0.677 ± 0.021 | 0.558 ± 0.023 | 0.674 ± 0.018 | 0.244 ± 0.011 | 0.283 ± 0.027 | 0.501 ± 0.025 | 0.4 ± 0.036
23 | LVLCCGFWFRAV | 0.619 ± 0.046 | 0.606 ± 0.038 | 0.464 ± 0.031 | 0.612 ± 0.0063 | 0.27 ± 0.0049 | 0.286 ± 0.029 | 0.501 ± 0.02 | 0.381 ± 0.025
24 | LVLGVEVCFVLG | 0.102 ± 0.0073 | 0.16 ± 0.011 | 0.177 ± 0.033 | 0.296 ± 0.0065 | 0.147 ± 0.012 | 0.168 ± 0.032 | 0.246 ± 0.022 | 0.273 ± 0.015
25 | LVPYLWWLVFAL | 0.189 ± 0.015 | 0.125 ± 0.023 | 0.192 ± 0.028 | 0.319 ± 0.046 | 0.202 ± 0.011 | 0.143 ± 0.019 | 0.24 ± 0.026 | 0.274 ± 0.027
26 | LVVFGLVLSLLL | 0.449 ± 0.013 | 0.477 ± 0.006 | 0.376 ± 0.022 | 0.5066 ± 0.0043 | 0.356 ± 0.008 | 0.374 ± 0.022 | 0.495 ± 0.03 | 0.469 ± 0.025
27 | LVVWASLVRVEG | 0.271 ± 0.033 | 0.3235 ± 0.003 | 0.252 ± 0.037 | 0.4191 ± 0.0033 | 0.2034 ± 0.00022 | 0.255 ± 0.02 | 0.389 ± 0.0079 | 0.33 ± 0.032
28 | LVWDLFRCFSML | 0.582 ± 0.018 | 0.7165 ± 0.001 | 0.647 ± 0.032 | 0.759 ± 0.038 | 0.23 ± 0.0054 | 0.228 ± 0.021 | 0.351 ± 0.029 | 0.242 ± 0.026
29 | LVWSGLIVVVGG | 0.179 ± 0.024 | 0.204 ± 0.064 | 0.2 ± 0.03 | 0.318 ± 0.013 | 0.176 ± 0.033 | 0.195 ± 0.033 | 0.269 ± 0.012 | 0.3 ± 0.042
30 | LWAVGVATDWGG | 0.706 ± 0.018 | 0.7571 ± 0.0035 | 0.684 ± 0.029 | 0.768 ± 0.015 | 0.694 ± 0.021 | 0.689 ± 0.011 | 0.7513 ± 0.0075 | 0.734 ± 0.022
